Experimental findings from the RNAGym collection of RNA variant scans (doi:10.7554/elife.80360) are described below.

The labels stand for the following.
B1: Twister Ribozyme (parent)
chain: AACACUGCCAAUGCCGGUCCCAAGCCCGGAUAAAAGUGGAGGGGGCGG

The variants in this data set derive from B1. Kind of data set: self-cleavage, relative activity (ratio to wild type); higher = more cleavage; co-transcriptional.
Take A34U G38C: the self-cleavage came to 0.638.

Turning to C3G A40C, the self-cleavage came out at 0.12.

Turning to G13C U31A, the self-cleavage was determined as 0.767.

As to G17U A23U, the self-cleavage turned out to be 0.159.

Consider G41U G48A, for which the self-cleavage was 0.401.

For the variant A1U G36A, the self-cleavage stood at 0.0371.

In the case of A2G C8A, the self-cleavage came out at 0.153.

Consider A34G G43U, for which the self-cleavage came to 0.133.

On to C8A U12C, for which the self-cleavage is 0.504.

As to G24C A30C, the self-cleavage turned out to be 0.0817.

Take A22G G29C: the self-cleavage is 0.0828.

On to G29U A34C, for which the self-cleavage was determined as 0.185.

With G13C C26G, the self-cleavage stood at 0.101.

As for A11C A33G, the self-cleavage was 0.893.

C5U G36A: the self-cleavage came out at 0.852.

G13A G48C: the self-cleavage turned out to be 0.91.

In the case of C3U C5A, the self-cleavage stood at 0.219.

In the case of U6A A10C, the self-cleavage is 1.19.

For the variant G13A G47A, the self-cleavage stood at 0.457.

Consider G7C C46G, for which the self-cleavage amounted to 0.0721.

As for C5U A33U, the self-cleavage is 0.714.

C19G U37A: the self-cleavage was 0.0632.

Regarding C3G G44A, the self-cleavage was 0.509.

As to G29U A35C, the self-cleavage is 0.892.

In the case of U18A G47C, the self-cleavage worked out at 0.164.

As for A1C G16U, the self-cleavage was determined as 0.189.

Consider A2U G38U, for which the self-cleavage amounted to 0.184.

For C20A C25A, the self-cleavage was determined as 0.0826.

On to A1C G44C, for which the self-cleavage was determined as 0.162.

As to A40C, the self-cleavage was found to be 0.262.

For U6C A23C, the self-cleavage was determined as 0.0308.

On to G38C G42C, for which the self-cleavage was 0.238.

Turning to A11G C14G, the self-cleavage amounted to 0.133.

On to G39C G41C, for which the self-cleavage is 0.112.

Consider C26A U31A, for which the self-cleavage was determined as 0.638.

With A22U G29A, the self-cleavage turned out to be 0.644.

Take C19G A34G: the self-cleavage came to 0.108.

In the case of G36A G43C, the self-cleavage came out at 0.152.

For the variant C14G A32U, the self-cleavage amounted to 0.184.

G42C C46G: the self-cleavage was found to be 0.465.

As to A1C U6A, the self-cleavage was 0.189.

For the variant C15U C21U, the self-cleavage was 0.101.

For A11U U37C, the self-cleavage was 0.583.

As for U31A G45U, the self-cleavage worked out at 0.619.

For C8U C27A, the self-cleavage turned out to be 0.0891.

In the case of U12G G45U, the self-cleavage was found to be 0.419.

For G16U C26G, the self-cleavage was 0.136.

With G13C A40G, the self-cleavage was determined as 0.0963.

Turning to A11G A32C, the self-cleavage was 0.925.

Consider G7U C8U, for which the self-cleavage was found to be 0.0467.

For the variant G7A A23G, the self-cleavage stood at 0.0819.

Regarding C25U A30G, the self-cleavage is 0.911.

As for C15A A22U, the self-cleavage was determined as 0.24.

Turning to A2G A23C, the self-cleavage came out at 0.0651.

As to C5A A30C, the self-cleavage was 0.348.

As for A1U C9G, the self-cleavage turned out to be 0.0577.

In the case of U12C C15U, the self-cleavage worked out at 1.09.

For C27U G48U, the self-cleavage stood at 0.942.

As to A4U C8G, the self-cleavage came to 0.13.

Take U37G A40G: the self-cleavage came to 0.155.

Regarding U6G G29C, the self-cleavage came to 0.139.

On to C14G U18C, for which the self-cleavage came out at 0.074.

As for A1G C15G, the self-cleavage was 0.125.

As for A35C G43C, the self-cleavage is 0.206.

On to A23C, for which the self-cleavage amounted to 0.385.

For the variant C27A A34G, the self-cleavage amounted to 0.139.

For the variant G7U G28U, the self-cleavage is 0.0862.

As for U18C A32G, the self-cleavage was found to be 0.664.

As to U37G G43A, the self-cleavage is 0.13.

As to A1C C9U, the self-cleavage is 0.174.

Regarding A11U G48C, the self-cleavage came to 1.12.

As to C21U G38U, the self-cleavage was found to be 0.0705.

With G41A G47C, the self-cleavage worked out at 0.2.

Consider C19A G45U, for which the self-cleavage was 0.257.

As for C25G G44A, the self-cleavage is 0.514.

For C46G G48U, the self-cleavage is 1.52.

With A11C A35G, the self-cleavage turned out to be 0.574.

Turning to C3U U12A, the self-cleavage was determined as 0.41.

Regarding U6G G38C, the self-cleavage is 0.168.

For the variant G17C G42C, the self-cleavage was 0.11.

On to G17A G24U, for which the self-cleavage stood at 0.0891.

A22U G24U: the self-cleavage was 0.11.

Consider C21A C27G, for which the self-cleavage amounted to 0.0914.

A4C A30U: the self-cleavage came to 0.189.

On to C26A G36U, for which the self-cleavage turned out to be 0.091.

With C19G A23G, the self-cleavage amounted to 0.0717.

With C9G C19U, the self-cleavage is 0.144.

Take U12G G17A: the self-cleavage was 0.577.

Consider C15A G24U, for which the self-cleavage worked out at 0.0837.

Consider C21U G47A, for which the self-cleavage was 0.123.

As to G36U G43C, the self-cleavage amounted to 0.124.

On to A1U C26G, for which the self-cleavage came to 0.0605.

On to G7C G47A, for which the self-cleavage was 0.0829.

G17C G45C: the self-cleavage was 0.0995.

As to A22G G39U, the self-cleavage came out at 0.109.

Take C25A C26U: the self-cleavage was found to be 0.0948.

On to G28C G47C, for which the self-cleavage was found to be 0.254.

Regarding C14A G16C, the self-cleavage was found to be 0.0948.

For A22G C46G, the self-cleavage came out at 0.328.

On to U31G G38C, for which the self-cleavage is 0.894.

For the variant G17U G45U, the self-cleavage is 0.221.

On to G16C A35G, for which the self-cleavage amounted to 0.483.

As for U12A G17C, the self-cleavage amounted to 0.114.

In the case of C5U G16U, the self-cleavage is 0.459.

In the case of G29C, the self-cleavage is 0.858.

For G29U G44U, the self-cleavage came out at 0.837.

Turning to C8A G16C, the self-cleavage was 0.0923.

Consider U12A G13A, for which the self-cleavage is 0.89.

Consider G44C G48A, for which the self-cleavage came out at 0.289.

Consider A2U C21U, for which the self-cleavage was found to be 0.0725.

As to C9U C20A, the self-cleavage is 0.0526.

A30G G41C: the self-cleavage came to 0.37.

Consider G17A A23G, for which the self-cleavage was 0.0743.

With G38A G47C, the self-cleavage came to 0.522.

Take A1U G48C: the self-cleavage was determined as 0.0772.

On to A1U G48U, for which the self-cleavage came to 0.0644.

Turning to C20A U37A, the self-cleavage came out at 0.0773.

A32G G41C: the self-cleavage was found to be 0.211.

G24U C46G: the self-cleavage was found to be 0.081.

Turning to A10U G43A, the self-cleavage is 0.373.

As to C26A G29C, the self-cleavage was determined as 0.122.

On to A35G C46U, for which the self-cleavage came to 0.854.

Consider U6A G42A, for which the self-cleavage came to 0.198.

Consider A4C C26G, for which the self-cleavage was determined as 0.103.

On to U31G G41A, for which the self-cleavage is 0.574.

Regarding U37C G42A, the self-cleavage was determined as 0.105.

Consider A22G G24U, for which the self-cleavage turned out to be 0.0699.

Regarding G16U C46A, the self-cleavage is 0.662.

Regarding U18C G48C, the self-cleavage is 0.562.

Consider C21A A35G, for which the self-cleavage amounted to 0.0738.

Consider C14U C26G, for which the self-cleavage was 0.235.

On to A40G G44C, for which the self-cleavage came to 0.195.

For the variant C26U G38A, the self-cleavage turned out to be 0.157.

Regarding C19U A34U, the self-cleavage is 0.56.

In the case of C20U A35C, the self-cleavage is 0.881.

C20G G42U: the self-cleavage is 0.386.

For C8A G13C, the self-cleavage turned out to be 0.0783.

On to C15A G39C, for which the self-cleavage was 0.124.

As to A22C A34G, the self-cleavage stood at 0.912.

With A4G A35G, the self-cleavage turned out to be 0.525.

Take A10U G41C: the self-cleavage was 0.239.

Consider C21U U37C, for which the self-cleavage came out at 0.0764.

A30C A34U: the self-cleavage amounted to 0.314.

For the variant A1C C27G, the self-cleavage was found to be 0.121.

Take A34G G42U: the self-cleavage was found to be 0.131.

Take G36U G38U: the self-cleavage is 0.167.

C5A G48U: the self-cleavage turned out to be 0.577.

G29U G43A: the self-cleavage stood at 0.23.

As for C19U U31G, the self-cleavage came to 0.956.

As for C15U A23G, the self-cleavage was 0.297.

Regarding C8U A33G, the self-cleavage came out at 0.25.

G29C U37C: the self-cleavage amounted to 0.182.

Turning to A4G G41U, the self-cleavage turned out to be 0.405.

Turning to C14A G39A, the self-cleavage stood at 0.409.

For the variant C26A G47A, the self-cleavage is 0.142.

For C8G G43C, the self-cleavage turned out to be 0.139.

For the variant A4G G44U, the self-cleavage was found to be 0.968.

In the case of A40U G47U, the self-cleavage was 0.12.

Regarding C21G G29U, the self-cleavage was found to be 0.0841.

G7C G48A: the self-cleavage was 0.0718.

On to C25U A35C, for which the self-cleavage came to 0.779.

G13U A32U: the self-cleavage amounted to 0.489.

For A2G G48C, the self-cleavage stood at 0.389.

Take A33U G48U: the self-cleavage is 0.931.

Take A11C U18G: the self-cleavage amounted to 0.0822.

For U31G, the self-cleavage was found to be 0.933.

For the variant A1G C14U, the self-cleavage was 0.693.
